Assay [1] has as its target T1, CD26 on CD26 positive human tumor cells (human, UniProt P27487 1-766). As to the kind of experiment: cell-based or functional assay.
Assay [2] addresses T2, CD26 protein (recombinant human CD26) (human, UniProt P27487 29-766, limits assumed).
T2 construct: Amine-coupled, biotinylated or HRP-labeled according to the assay; also called DPP4; rCD26
As to the kind of experiment: BLI (Octet QKe), CD26 amine-coupled on AR2G sensor, antibody at 181.8 nM. On the procedure: The affinity of the chimeric antibody to the antigen protein CD26 was detected by Fortebio Intermolecular Interaction Octet QKe instrument. First, the amino-coupled biosensor AR2G was activated with EDC/s-NHS, and the activated biosensor AR2G was solidified in CD26 protein solution diluted with 10 mM sodium acetate (pH 5.0) solution. The biosensor solidified with CD26 was quenched in 1M ethanolamine (pH8.5) solution. Then equilibrated in 1× kinetic solution. After equilibration, it was bound to a humanized bispecific antibody solution. It was dissociated in 1× kinetic solution. Fortebio Data Analysis 8.0 software was used to analyze the data and calculate the affinity constant (KD), association rate constant (kon) and dissociation rate constant (kdis). The Response value represents the number of antibody molecules that can bind to the antigen. Kon indicates the binding speed of the antibody to the corresponding receptor. Kdis represents the dissociation speed of antibody from corresponding receptor. NA indicates no valid data.
A general note: In BLI a coated tip is dipped into the sample, and binding shifts an interference pattern.

Assay [3] concerns the target T3, CD3 protein.
T3 chain 1: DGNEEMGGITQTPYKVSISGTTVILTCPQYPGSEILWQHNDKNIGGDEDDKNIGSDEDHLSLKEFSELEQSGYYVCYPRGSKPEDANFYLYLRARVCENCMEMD
T3 chain 2: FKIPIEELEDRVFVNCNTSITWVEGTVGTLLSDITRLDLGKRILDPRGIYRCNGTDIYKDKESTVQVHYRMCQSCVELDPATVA
As to the kind of experiment: BLI (Octet QKe), CD3 amine-coupled on AR2G sensor, antibody at 181.8 nM. The method, then: The affinity of chimeric antibodies to antigen protein CD3 was determined by Fortebio Intermolecular Interaction Octet QKe instrument. First, the amino-coupled biosensor AR2G was activated with EDC/s-NHS, and the activated biosensor AR2G was solidified in CD3 protein solution diluted with 10 mM sodium acetate (pH 5.0) solution. The biosensor solidified with CD3 was quenched in 1M ethanolamine (pH8.5) solution. Then equilibrated in 1× kinetic solution. After equilibration, it was bound to bispecific antibody solution. They were dissociated in 1×kinetic solution. Fortebio Data Analysis 8.0 software was used to analyze the data and calculate the affinity constant value (KD).

Assay [4] addresses T2, CD26 protein (recombinant human CD26). Put plainly: BLI (Octet), biotinylated CD26 on SA sensor, antibody 31.3-500 nM. The method, then: CD26 protein was biotinylated with EZ-link NHS-PEG12-Biotin. Biotinylated CD26 protein was immobilized to SA biosensor. Equilibrated in 1×Kinetics solution. The CD26 immobilized to SA biosensor was combined with the antibody solution to be detected. The concentration gradients of the antibody solution were 31.3 nM, 62.5 nM, 125 nM, 250 nM, and 500 nM. The biosensor was dissociated in 1×Kinetics solution. Fortebio Data Analysis 8.0 software was used for data analysis and affinity constant values were calculated.

Assay [5] concerns the target T1, CD26 on CD26 positive human tumor cells. As to the kind of experiment: cell-based or functional assay. This is another data set of the same source.
Assay [6] concerns the target T3, CD3 protein. As to the kind of experiment: BLI (Octet), biotinylated CD3 on SA sensor, antibody 200-1600 nM. The method, then: CD3 protein was biotinylated with EZ-link NHS-PEG12-Biotin. Biotinylated CD3 protein was immobilized to SA biosensor. Equilibrated in 1×Kinetics solution. The CD3 immobilized to SA biosensor was combined with the humanized bispecific antibody solution to be detected. The concentration gradient of humanized bispecific antibody was 200 nM, 400 nM, 800 nM, and 1600 nM. The biosensor was dissociated in 1×Kinetics solution. Fortebio Data Analysis 8.0 software was used for data analysis and affinity constant values were calculated.

For assay [7], the target named is T1, CD26 on CD26 positive human tumor cells. As to the kind of experiment: cell-based or functional assay. The source holds these as a separate data set.

B1: No. 212 mouse antibody (antibody, V domains shown)
VH: EVQLQEAGPSLVKPSQTLSLTCFVTGDSITSGYWHWIRKFPGNKLEYMGYINYSGYTYYNPSLKSRFSITRDTSKNQYYLQLNSVTTEDTATYYCTSERNWGAFAYWGQGTLITVSS
VL: ENVLTQSPAIMSASPGEKVTMTCRASSSVISTYLHWYQQKSGASPKLWIYSTSNLASGVPARFSGSGSGTSYSLTISSVEAEDAATYYCQQFSGYPYTFGGGTKLEIK
With B1, the “cell lysis rate, antibody mediated PBMC cytotoxic effect on 786-0 cells (100 ng/ml, 5 h)” value (“cell lysis rate” below) in assay [1] stood at 11.3%.

B2: 17G61 (anti-CD26-CD3 chimeric bispecific antibody derived from No. 62 mouse antibody) (bispecific antibody)
chain: DIVMTQAAPSVSVTPGESVSISCRSDKSLLHSNGNTYLYWFLQRPGQSPQVLIYRMSNLASGVPDRFSGSGSGTGFTLRVSRVEAEDVGVYYCFQQLEYPYTFGGGTKLEIKGGGGSGGGGSGGGGSEVQLQQSGAELVKPGASVKLSCTASGFNIKDTYIYWVKQRPGQGLEWIGRIEPMNGNTKYDPKFQGKATMTANTSSNTAYLHLSSLASEDTAVYFCSRGGWLLLYVMDYWGQGTSVTVSSGGGGSDVQLVQSGAEVKKPGASVKVSCKASGYTFTRYTMHWVRQAPGQGLEWIGYINPSRGYTNYADSVKGRFTITTDKSTSTAYMELSSLRSEDTATYYCARYYDDHYCLDYWGQGTTVTVSSGGGGSGGGGSGGGGSDIVLTQSPATLSLSPGERATLSCRASQSVSYMNWYQQKPGKAPKRWIYDTSKVASGVPARFSGSGSGTDYSLTINSLEAEDAATYYCQQWSSNPLTFGGGTKVEIK
notes: also called chimeric BiTE
For orientation: Kd means the concentration at which binding is half-saturated. One may read the koff as the rate constant with which the complex falls apart. Usually kon stands for the second-order rate constant of association. On to B2, for which, in assay [2], the Kd was 17.3 nM, the Response is 0.849, the koff came out at 0.000331 s⁻¹ and the kon worked out at 19100 M⁻¹ s⁻¹. In the assay with CD3 protein [3], this molecule registered a dissociation constant Kd of 8.87 nM, a koff of 0.00159 s⁻¹ and a kon of 179000 M⁻¹ s⁻¹.

B3: 21G587 (19G294 anti-CD26 scFv joined to the WBP3311_2.306.4 anti-CD3 scFv) (bispecific antibody)
chain: EVQLVQSGAELVKPGASVKLSCAASGFNIKDTYIYWVRQAPGQGLEWVGRIEPMNGNTKYDPKFQGRFTMTANTSKNTAYLQLSSLRSEDTAVYYCSRGGWLLLYVMDYWGQGTLVTVSSGGGGSGGGGSGGGGSDIVMTQSPSSLSVTPGERVSISCRSDKSLLHSNGNTYLYWFLQKPGQSPQVLIYRMSNLASGVPDRFSGSGSGTDFTLTISRVEAEDVGVYYCFQQLEYPYTFGQGTKLEIKGGGGSQVQLVQSGAEVKKPGSSVKVSCKASGFAFTDYYIHWVRQAPGQGLEWMGWISPGNVNTKYNENFKGRVTITADKSTSTAYMELSSLRSEDTAVYYCARDGYSLYYFDYWGQGTLVTVSSGGGGSGGGGSGGGGSDIVMTQSPDSLAVSLGERATINCKSSQSLLNSRTRKNYLAWYQQKPGQPPKLLIYWASTRQSGVPDRFSGSGSGTDFTLTISSLQAEDVAVYYCTQSHTLRTFGGGTKVEIK
B3: in assay [4], the dissociation constant Kd was determined as 0.352 nM, the koff was found to be 4.01e-05 s⁻¹ and the kon was 114000 M⁻¹ s⁻¹. In assay [5], the “EC50 of antibody mediated cytotoxicity of PBMC against 786-0-LUC cells (luciferase reporter)” value is 0.00249 µg/mL and the “EC50 of antibody mediated cytotoxicity of PBMC against A498-LUC cells (luciferase reporter)” value was found to be 0.0054 µg/mL. Moreover, in the assay with CD3 protein [6], binding was put at a Kd of 0.683 nM, the koff stood at 8.71e-05 s⁻¹ and the kon came out at 128000 M⁻¹ s⁻¹.

B4: YS110 (humanized anti-CD26 full-length IgG antibody) (antibody, V domains shown)
VH: EVQLVESGAGVKQPGGTLRLTCTASGFSLTTYGVHWVRQAPGKGLEWVGVIWGDGRTDYDAAFMSRVTISKDTSKSTVYLQMNSLRAEDTAVYYCMRNRHDWFDYWGQGTTVTVSS
VL: DILLTQSPSSLSATPGERATITCRASQGIRNNLNWYQQKPGQAPRLLIYYSSNLQSGVPSRFSGSGSGTDFTLTISRLQPEDVAAYYCQQSIKLPFTFGSGTKVEIK
With B4, in assay [1], the “cell lysis rate” value worked out at 56.6%. Besides, in assay [7], the “IC50 of antibody mediated PBMC cytotoxicity against 786-0 cells” value is over 0.1 µg/mL, the “IC50 of antibody mediated PBMC cytotoxicity against NCI-H226 cells” value is over 0.1 µg/mL, the “IC50 of antibody mediated PBMC cytotoxicity against OS-RC-2 cells” value is over 0.1 µg/mL and the “IC50 of antibody mediated PBMC cytotoxicity against PC-3 cells” value is over 0.1 µg/mL.

B5: 17G105 (anti-CD26-CD3 chimeric bispecific antibody derived from No. 72 mouse antibody) (bispecific antibody)
chain: DIVLTQSPASLAVSLGQRATISCRASESVEYYGTSLMQWYQQKPGQPPKLLIYTASNVESGVPVRFSGSGSGTDFSLNIHPVEEDDIAMYFCQQSRKVPYTFGGGTKLEIKGGGGSGGGGSGGGGSQVQLQQSGPELMKPGASVKISCKATGYSFSGFWIEWVKQRPGHGLEWIGEILPGSGASNYHENFKGRATITADTSANTAYMQLRSLTSEDSAVYYCARERYYGSKYFDVWGAGTTVTVSSGGGGSDVQLVQSGAEVKKPGASVKVSCKASGYTFTRYTMHWVRQAPGQGLEWIGYINPSRGYTNYADSVKGRFTITTDKSTSTAYMELSSLRSEDTATYYCARYYDDHYCLDYWGQGTTVTVSSGGGGSGGGGSGGGGSDIVLTQSPATLSLSPGERATLSCRASQSVSYMNWYQQKPGKAPKRWIYDTSKVASGVPARFSGSGSGTDYSLTINSLEAEDAATYYCQQWSSNPLTFGGGTKVEIK
notes: also called chimeric BiTE
As for B5, in assay [2], the Kd turned out to be 39.3 nM, the Response is 0.498, the koff worked out at 0.00126 s⁻¹ and the kon worked out at 32000 M⁻¹ s⁻¹. Further, in the assay with CD3 protein [3], binding was characterised by a dissociation constant (Kd) of 2.18 nM, the koff is 0.000672 s⁻¹ and the kon amounted to 309000 M⁻¹ s⁻¹.

B6: No. 62 mouse antibody (antibody, V domains shown)
VH: EVQLQQSGAELVKPGASVKLSCTASGFNIKDTYIYWVKQRPGQGLEWIGRIEPMNGNTKYDPKFQGKATMTANTSSNTAYLHLSSLASEDTAVYFCSRGGWLLLYVMDYWGQGTSVTVSS
VL: DIVMTQAAPSVSVTPGESVSISCRSDKSLLHSNGNTYLYWFLQRPGQSPQVLIYRMSNLASGVPDRFSGSGSGTGFTLRVSRVEAEDVGVYYCFQQLEYPYTFGGGTKLEIKR
Turning to B6, the “cell lysis rate” value in assay [1] is 53.1%.

B7: 17G131 (anti-CD26-CD3 chimeric bispecific antibody derived from No. 51 mouse antibody) (bispecific antibody)
chain: DIQMTQSPASLSASVGESVTITCRASENIYSYLTWYQQKQGKSPQLLVYNAKTLTEDVPSRFSGSGSGTQFSLKINSLQPEDFGSYYCQHHYGSPRTFGGGTKLEIKGGGGSGGGGSGGGGSQAQLQQSGAELMKPGASVKISCKATGYTFSNFWIEWVVQRPGHGLEWIGEILPGRGTTNYNEKFRGKATFTADTSSDTAYIQLSSLTSEDSAVYYCARERFYGSKYFDVWGAGTTVTVSSGGGGSDVQLVQSGAEVKKPGASVKVSCKASGYTFTRYTMHWVRQAPGQGLEWIGYINPSRGYTNYADSVKGRFTITTDKSTSTAYMELSSLRSEDTATYYCARYYDDHYCLDYWGQGTTVTVSSGGGGSGGGGSGGGGSDIVLTQSPATLSLSPGERATLSCRASQSVSYMNWYQQKPGKAPKRWIYDTSKVASGVPARFSGSGSGTDYSLTINSLEAEDAATYYCQQWSSNPLTFGGGTKVEIK
notes: also called chimeric BiTE
Regarding B7, in assay [2], the Kd is 43.6 nM, the Response is 0.15, the koff was 0.000829 s⁻¹ and the kon turned out to be 19000 M⁻¹ s⁻¹.

For the origin of these results see patent US20250179208A1 (ZONHON BIOPHARMA INSTITUTE, published 2025).
